# Measurements published in patent US7125847 (RESEARCH FOUNDATION OF STATE UNIVERSITY OF NEW YORK AT …, dated 2006).
# Where no end group is shown, it is not given here.
# B1: GsMTx-4 purified from Grammostola spatulata venom (peptide)
# peptide: GCLEFWWKCNPNDDKCCRPKLKCSKLFKLCNFSSG-NH2
# modifications: disulfide (positions not given here); not fully specified (bridges); also: 3 disulfides (ICK motif), pairing not given here
# Target: stretch-activated channels (cationic SACs) of ventricular myocytes from rabbits with aortic … (rabbit)
# Assay: cell-based or functional assay
binder,measurement,value
B1,myocyte cell volume reduction relative to that produced by 1.5 T saline,~40%
